# Experimental data published in IntAct's records for PubMed 29892012.
# B1: Abl interactor 2 (Homo sapiens), Q9NYB9 (parent)
# chain: MAELQMLLEEEIPGGRRALFDSYTNLERVADYCENNYIQSADKQRALEETKAYTTQSLASVAYLINTLANNVLQMLDIQASQLRRMESSINHISQTVDIHKEKVARREIGILTTNKNTSRTHKIIAPANLERPVRYIRKPIDYTILDDIGHGVKWLLRFKVSTQNMKMGGLPRTTPPTQKPPSPPMSGKGTLGRHSPYRTLEPVRPPVVPNDYVPSPTRNMAPSQQSPVRTASVNQRNRTYSSSGSSGGSHPSSRSSSRENSGSGSVGVPIAVPTPSPPSVFPAPAGSAGTPPLPATSASAPAPLVPATVPSSTAPNAAAGGAPNLADGFTSPTPPVVSSTPPTGHPVQFYSMNRPASRHTPPTIGGSLPYRRPPSITSQTSLQNQMNGGPFYSQNPVSDTPPPPPPVEEPVFDESPPPPPPPEDYEEEEAAVVEYSDPYAEEDPPWAPRSYLEKVVAIYDYTKDKEDELSFQEGAIIYVIKKNDDGWYEGVMNGVTGLFPGNYVESIMHYSE
# partner: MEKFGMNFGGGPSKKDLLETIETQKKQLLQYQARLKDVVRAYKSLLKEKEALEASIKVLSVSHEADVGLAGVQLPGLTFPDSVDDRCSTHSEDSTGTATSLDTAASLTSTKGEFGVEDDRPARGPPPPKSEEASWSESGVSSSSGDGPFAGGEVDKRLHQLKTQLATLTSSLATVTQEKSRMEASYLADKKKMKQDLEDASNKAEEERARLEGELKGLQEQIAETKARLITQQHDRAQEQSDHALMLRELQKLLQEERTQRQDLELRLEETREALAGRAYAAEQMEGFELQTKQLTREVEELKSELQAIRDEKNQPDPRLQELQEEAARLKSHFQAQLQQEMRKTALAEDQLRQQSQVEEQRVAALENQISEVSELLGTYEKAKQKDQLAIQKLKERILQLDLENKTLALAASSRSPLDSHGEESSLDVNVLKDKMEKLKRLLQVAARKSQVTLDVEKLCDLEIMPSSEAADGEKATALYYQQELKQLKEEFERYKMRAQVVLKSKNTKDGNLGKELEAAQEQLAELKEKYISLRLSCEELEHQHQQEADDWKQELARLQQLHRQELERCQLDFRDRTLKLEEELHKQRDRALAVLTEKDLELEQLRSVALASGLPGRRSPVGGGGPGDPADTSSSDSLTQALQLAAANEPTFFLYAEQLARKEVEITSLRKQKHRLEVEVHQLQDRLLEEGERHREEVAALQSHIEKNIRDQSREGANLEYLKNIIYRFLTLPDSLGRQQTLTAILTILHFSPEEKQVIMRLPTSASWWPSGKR
# B2: Abl interactor 2 (Homo sapiens), Q9NYB9 (parent)
# chain: B1 chain
# partner: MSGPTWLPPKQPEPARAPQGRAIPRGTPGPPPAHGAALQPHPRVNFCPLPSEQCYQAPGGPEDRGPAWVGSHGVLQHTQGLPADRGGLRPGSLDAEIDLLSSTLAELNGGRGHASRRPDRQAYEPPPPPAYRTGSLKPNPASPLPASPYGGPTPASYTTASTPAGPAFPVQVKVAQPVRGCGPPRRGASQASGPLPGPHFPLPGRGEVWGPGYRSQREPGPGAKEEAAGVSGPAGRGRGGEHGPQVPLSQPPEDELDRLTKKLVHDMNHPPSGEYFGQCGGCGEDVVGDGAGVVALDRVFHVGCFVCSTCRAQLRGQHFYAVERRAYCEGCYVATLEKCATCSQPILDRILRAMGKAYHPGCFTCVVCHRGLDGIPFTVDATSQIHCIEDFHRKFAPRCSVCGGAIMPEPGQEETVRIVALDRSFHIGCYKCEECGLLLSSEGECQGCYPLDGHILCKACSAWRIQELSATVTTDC
# B3: Angio-associated migratory cell protein (Homo sapiens), Q13685 (parent)
# chain: MESESESGAAADTPPLETLSFHGDEEIIEVVELDPGPPDPDDLAQEMEDVDFEEEEEEEGNEEGWVLEPQEGVVGSMEGPDDSEVTFALHSASVFCVSLDPKTNTLAVTGGEDDKAFVWRLSDGELLFECAGHKDSVTCAGFSHDSTLVATGDMSGLLKVWQVDTKEEVWSFEAGDLEWMEWHPRAPVLLAGTADGNTWMWKVPNGDCKTFQGPNCPATCGRVLPDGKRAVVGYEDGTIRIWDLKQGSPIHVLKGTEGHQGPLTCVAANQDGSLILTGSVDCQAKLVSATTGKVVGVFRPETVASQPSLGEGEESESNSVESLGFCSVMPLAAVGYLDGTLAIYDLATQTLRHQCQHQSGIVQLLWEAGTAVVYTCSLDGIVRLWDARTGRLLTDYRGHTAEILDFALSKDASLVVTTSGDHKAKVFCVQRPDR
# partner: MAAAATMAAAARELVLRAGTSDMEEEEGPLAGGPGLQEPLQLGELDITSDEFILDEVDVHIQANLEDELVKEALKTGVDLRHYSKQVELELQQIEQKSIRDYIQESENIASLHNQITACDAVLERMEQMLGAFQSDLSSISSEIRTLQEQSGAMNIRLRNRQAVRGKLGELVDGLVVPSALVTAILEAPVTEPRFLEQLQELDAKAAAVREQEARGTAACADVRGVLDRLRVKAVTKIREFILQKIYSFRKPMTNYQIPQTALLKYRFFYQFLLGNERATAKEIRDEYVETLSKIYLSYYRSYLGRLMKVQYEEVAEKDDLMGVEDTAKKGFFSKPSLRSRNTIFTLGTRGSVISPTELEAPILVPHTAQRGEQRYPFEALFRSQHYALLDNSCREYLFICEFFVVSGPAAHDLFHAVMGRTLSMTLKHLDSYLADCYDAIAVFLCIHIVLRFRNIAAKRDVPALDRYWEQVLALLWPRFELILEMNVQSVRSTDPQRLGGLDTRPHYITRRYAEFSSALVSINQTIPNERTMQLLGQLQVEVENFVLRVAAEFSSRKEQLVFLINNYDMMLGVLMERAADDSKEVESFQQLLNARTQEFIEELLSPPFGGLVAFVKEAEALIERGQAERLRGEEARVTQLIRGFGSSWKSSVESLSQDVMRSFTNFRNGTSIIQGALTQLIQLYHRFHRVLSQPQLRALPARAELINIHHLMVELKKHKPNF
# B4: Acetylcholine receptor subunit gamma (Homo sapiens), P07510 (parent)
# chain: MHGGQGPLLLLLLLAVCLGAQGRNQEERLLADLMQNYDPNLRPAERDSDVVNVSLKLTLTNLISLNEREEALTTNVWIEMQWCDYRLRWDPRDYEGLWVLRVPSTMVWRPDIVLENNVDGVFEVALYCNVLVSPDGCIYWLPPAIFRSACSISVTYFPFDWQNCSLIFQSQTYSTNEIDLQLSQEDGQTIEWIFIDPEAFTENGEWAIQHRPAKMLLDPAAPAQEAGHQKVVFYLLIQRKPLFYVINIIAPCVLISSVAILIHFLPAKAGGQKCTVAINVLLAQTVFLFLVAKKVPETSQAVPLISKYLTFLLVVTILIVVNAVVVLNVSLRSPHTHSMARGVRKVFLRLLPQLLRMHVRPLAPAAVQDTQSRLQNGSSGWSITTGEEVALCLPRSELLFQQWQRQGLVAAALEKLEKGPELGLSQFCGSLKQAAPAIQACVEACNLIACARHQQSHFDNGNEEWFLVGRVLDRVCFLAMLSLFICGTAGIFLMAHYNRVPALPFPGDPRPYLPSPD
# partner: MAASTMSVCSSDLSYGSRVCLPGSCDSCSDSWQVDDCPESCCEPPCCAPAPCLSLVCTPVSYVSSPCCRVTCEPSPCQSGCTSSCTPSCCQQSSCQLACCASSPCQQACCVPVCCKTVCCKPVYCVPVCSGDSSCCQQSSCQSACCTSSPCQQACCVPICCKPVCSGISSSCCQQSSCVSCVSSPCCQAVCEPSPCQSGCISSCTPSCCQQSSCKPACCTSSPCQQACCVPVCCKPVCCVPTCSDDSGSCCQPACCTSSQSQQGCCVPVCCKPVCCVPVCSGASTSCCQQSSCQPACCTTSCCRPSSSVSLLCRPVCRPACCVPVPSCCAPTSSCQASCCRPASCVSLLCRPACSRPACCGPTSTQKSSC
# B5: Zinc finger protein ZXDC (Homo sapiens), Q2QGD7 (parent)
# chain: MDLPALLPAPTARGGQHGGGPGPLRRAPAPLGASPARRRLLLVRGPEDGGPGARPGEASGPSPPPAEDDSDGDSFLVLLEVPHGGAAAEAAGSQEAEPGSRVNLASRPEQGPSGPAAPPGPGVAPAGAVTISSQDLLVRLDRGVLALSAPPGPATAGAAAPRRAPQASGPSTPGYRCPEPQCALAFAKKHQLKVHLLTHGGGQGRRPFKCPLEGCGWAFTTSYKLKRHLQSHDKLRPFGCPVGGCGKKFTTVYNLKAHMKGHEQESLFKCEVCAERFPTHAKLSSHQRSHFEPERPYKCDFPGCEKTFITVSALFSHNRAHFREQELFSCSFPGCSKQYDKACRLKIHLRSHTGERPFICDSDSCGWTFTSMSKLLRHRRKHDDDRRFTCPVEGCGKSFTRAEHLKGHSITHLGTKPFECPVEGCCARFSARSSLYIHSKKHVQDVGAPKSRCPVSTCNRLFTSKHSMKAHMVRQHSRRQDLLPQLEAPSSLTPSSELSSPGQSELTNMDLAALFSDTPANASGSAGGSDEALNSGILTIDVTSVSSSLGGNLPANNSSLGPMEPLVLVAHSDIPPSLDSPLVLGTAATVLQQGSFSVDDVQTVSAGALGCLVALPMKNLSDDPLALTSNSNLAAHITTPTSSSTPRENASVPELLAPIKVEPDSPSRPGAVGQQEGSHGLPQSTLPSPAEQHGAQDTELSAGTGNFYLESGGSARTDYRAIQLAKEKKQRGAGSNAGASQSTQRKIKEGKMSPPHFHASQNSWLCGSLVVPSGGRPGPAPAAGVQCGAQGVQVQLVQDDPSGEGVLPSARGPATFLPFLTVDLPVYVLQEVLPSSGGPAGPEATQFPGSTINLQDLQ
# partner: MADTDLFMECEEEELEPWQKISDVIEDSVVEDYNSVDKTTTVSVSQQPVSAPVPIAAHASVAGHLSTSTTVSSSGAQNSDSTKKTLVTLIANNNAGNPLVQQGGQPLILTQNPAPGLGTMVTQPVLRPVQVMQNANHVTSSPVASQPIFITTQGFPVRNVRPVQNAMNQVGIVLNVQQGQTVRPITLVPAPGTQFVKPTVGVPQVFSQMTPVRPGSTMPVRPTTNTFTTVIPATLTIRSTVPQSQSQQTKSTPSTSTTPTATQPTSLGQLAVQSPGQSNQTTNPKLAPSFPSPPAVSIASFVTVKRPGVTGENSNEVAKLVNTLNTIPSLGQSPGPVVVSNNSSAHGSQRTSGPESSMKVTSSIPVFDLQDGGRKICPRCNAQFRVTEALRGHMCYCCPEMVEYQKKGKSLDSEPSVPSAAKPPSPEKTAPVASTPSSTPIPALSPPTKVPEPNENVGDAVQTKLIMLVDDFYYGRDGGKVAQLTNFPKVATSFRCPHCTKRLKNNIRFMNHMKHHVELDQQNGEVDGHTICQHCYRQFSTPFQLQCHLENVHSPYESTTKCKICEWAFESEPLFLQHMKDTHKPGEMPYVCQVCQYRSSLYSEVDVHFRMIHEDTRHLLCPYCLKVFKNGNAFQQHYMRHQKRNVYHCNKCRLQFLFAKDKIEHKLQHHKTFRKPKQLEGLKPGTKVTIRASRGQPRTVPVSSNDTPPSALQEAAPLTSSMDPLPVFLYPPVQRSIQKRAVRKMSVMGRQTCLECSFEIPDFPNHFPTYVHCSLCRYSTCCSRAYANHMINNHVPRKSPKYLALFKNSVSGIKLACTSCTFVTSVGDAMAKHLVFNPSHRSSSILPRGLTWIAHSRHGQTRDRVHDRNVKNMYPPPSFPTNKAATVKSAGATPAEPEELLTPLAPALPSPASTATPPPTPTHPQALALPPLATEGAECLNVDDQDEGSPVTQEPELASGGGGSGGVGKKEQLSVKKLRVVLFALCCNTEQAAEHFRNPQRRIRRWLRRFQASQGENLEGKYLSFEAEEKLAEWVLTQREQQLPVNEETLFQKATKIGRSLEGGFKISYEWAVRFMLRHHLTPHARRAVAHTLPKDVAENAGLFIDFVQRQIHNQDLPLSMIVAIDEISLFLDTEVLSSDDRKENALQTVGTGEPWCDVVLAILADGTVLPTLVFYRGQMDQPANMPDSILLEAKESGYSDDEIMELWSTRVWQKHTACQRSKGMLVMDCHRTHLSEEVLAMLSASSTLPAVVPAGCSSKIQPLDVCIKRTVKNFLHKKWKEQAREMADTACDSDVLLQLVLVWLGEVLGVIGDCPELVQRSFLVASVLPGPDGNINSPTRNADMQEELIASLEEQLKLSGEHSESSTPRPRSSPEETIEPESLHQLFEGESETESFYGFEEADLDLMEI
# Variants of: B1
# Conditions: with gcc1_human GCC1, Q96CN9
row,Variant,effect of a mutation on the interaction
1,E202K,with no effect

# Variants of: B2
# Conditions: with trip6_human TRIP6, Q15654
row,Variant,effect of a mutation on the interaction
1,R373C,with no effect

# Variants of: B2
# Conditions: with trip6_human TRIP6, Q15654
# Remark: another data set of the same source
row,Variant,effect of a mutation on the interaction
1,E202K,with no effect

# Variants of: B3
# Conditions: with vps52_human VPS52, Q8N1B4
row,Variant,effect of a mutation on the interaction
1,I343F,with no effect

# Variants of: B4
# Conditions: with kr107_human KRTAP10-7, P60409
row,Variant,effect of a mutation on the interaction
1,I448T,with no effect

# Variants of: B5
# Conditions: with pogz_human POGZ
row,Variant,effect of a mutation on the interaction
1,T589M,with no effect
